Measured values taken from publication PMC9482650, “Quantitative fragmentomics allow affinity mapping of interactomes” (Nature Communications, 2022).
Positions count from the first letter of the chain named.

T1: APBA1_2, Q02410
T1 sequence (Q02410 742-832, limits assumed, looked up): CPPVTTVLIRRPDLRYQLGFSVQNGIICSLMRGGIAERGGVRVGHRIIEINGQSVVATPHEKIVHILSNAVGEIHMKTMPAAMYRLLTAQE

T2: APBA2_2, Q99767
T2 sequence (Q99767 654-744, limits assumed, looked up): T1 sequence (Q02410 742-832, limits assumed, looked up) with R10K, R15K, P59A, H65Q, I66A, A70S, Y84F, A89G

T3: CARD11, Q9BXL7
T3 sequence (Q9BXL7 662-765, limits assumed, looked up): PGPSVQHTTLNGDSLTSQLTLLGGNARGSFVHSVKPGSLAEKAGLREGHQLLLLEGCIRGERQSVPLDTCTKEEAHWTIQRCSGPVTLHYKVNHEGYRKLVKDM

T4: DFNB31_2, Q9P202
T4 sequence (Q9P202 274-371, limits assumed, looked up): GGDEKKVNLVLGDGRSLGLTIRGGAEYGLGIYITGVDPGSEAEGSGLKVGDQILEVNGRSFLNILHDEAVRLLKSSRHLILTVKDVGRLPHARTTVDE

T5: FRMPD1, Q5SYB0
T5 sequence (Q5SYB0 52-145, limits assumed, looked up): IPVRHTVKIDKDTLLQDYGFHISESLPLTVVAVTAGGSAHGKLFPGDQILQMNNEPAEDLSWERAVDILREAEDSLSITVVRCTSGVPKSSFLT

T6: LNX2_3, Q8N448
T6 sequence (Q8N448 463-564, limits assumed, looked up): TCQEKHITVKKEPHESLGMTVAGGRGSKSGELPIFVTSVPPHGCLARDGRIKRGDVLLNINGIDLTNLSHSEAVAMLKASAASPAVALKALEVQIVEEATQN

T7: MPDZ_10, O75970
T7 sequence (O75970 1624-1722, limits assumed, looked up): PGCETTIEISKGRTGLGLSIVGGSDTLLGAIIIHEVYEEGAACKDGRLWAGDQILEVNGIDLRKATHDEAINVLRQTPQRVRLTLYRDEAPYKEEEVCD

T8: MPP6, Q9NZW5
T8 sequence (Q9NZW5 125-219, limits assumed, looked up): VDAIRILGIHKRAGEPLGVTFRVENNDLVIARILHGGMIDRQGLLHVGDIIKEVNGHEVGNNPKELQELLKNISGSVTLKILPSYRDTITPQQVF

T9: MPP7, Q5T2T1
T9 sequence (Q5T2T1 134-230, limits assumed, looked up): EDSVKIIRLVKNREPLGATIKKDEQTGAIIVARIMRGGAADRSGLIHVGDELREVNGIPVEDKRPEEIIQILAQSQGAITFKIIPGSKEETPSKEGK

T10: NHERF3_3, Q5T2W1
T10 sequence (Q5T2W1 238-333, limits assumed, looked up): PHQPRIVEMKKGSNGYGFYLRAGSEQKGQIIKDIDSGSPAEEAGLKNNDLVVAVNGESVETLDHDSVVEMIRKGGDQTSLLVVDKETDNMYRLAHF

T11: NHERF3_4, Q5T2W1
T11 sequence (Q5T2W1 373-468, limits assumed, looked up): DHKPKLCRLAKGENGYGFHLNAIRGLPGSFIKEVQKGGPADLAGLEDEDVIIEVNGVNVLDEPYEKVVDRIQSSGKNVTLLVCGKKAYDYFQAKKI

T12: PDZD2_2, O15018
T12 sequence (O15018 329-429, limits assumed, looked up): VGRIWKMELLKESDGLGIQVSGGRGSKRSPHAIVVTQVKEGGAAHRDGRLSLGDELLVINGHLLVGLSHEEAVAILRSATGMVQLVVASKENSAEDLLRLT

T13: SHANK1, Q9Y566
T13 sequence (Q9Y566 658-767, limits assumed, looked up): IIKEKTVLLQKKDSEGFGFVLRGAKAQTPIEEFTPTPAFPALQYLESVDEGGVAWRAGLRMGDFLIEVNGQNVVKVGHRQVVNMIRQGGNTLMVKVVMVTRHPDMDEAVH

T14: TX1BP3, O14907
T14 sequence (O14907 10-122, limits assumed, looked up): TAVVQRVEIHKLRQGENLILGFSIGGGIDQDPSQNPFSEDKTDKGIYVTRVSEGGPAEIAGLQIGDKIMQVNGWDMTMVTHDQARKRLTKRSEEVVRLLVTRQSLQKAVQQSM


target: T1, APBA1_2, Q02410; assay: holdup assay; design: key: below the threshold = too weak to quantify, mostly under pKd 3.1 to 4; conditions: plain residues with an end cap or a label only (N-terminal biotin on a linker: ttds)

Binder	pKd
FHPLGADSQV [SLC2A1, P11166]	below the threshold
PVRVCEETSL [OTULIN, Q96BN8]	3.95

target: T2, APBA2_2, Q99767; assay: holdup assay; design: key: below the threshold = too weak to quantify, mostly under pKd 3.1 to 4; conditions: plain residues with an end cap or a label only (N-terminal biotin on a linker: ttds)

Binder	pKd
FHPLGADSQV [SLC2A1, P11166]	below the threshold
PVRVCEETSL [OTULIN, Q96BN8]	3.51

target: T3, CARD11, Q9BXL7; assay: holdup assay; design: key: below the threshold = too weak to quantify, mostly under pKd 3.1 to 4; conditions: plain residues with an end cap or a label only (N-terminal biotin on a linker: ttds)

Binder	pKd
FHPLGADSQV [SLC2A1, P11166]	below the threshold
PVRVCEETSL [OTULIN, Q96BN8]	3.59

target: T4, DFNB31_2, Q9P202; assay: holdup assay; design: key: below the threshold = too weak to quantify, mostly under pKd 3.1 to 4; conditions: plain residues with an end cap or a label only (N-terminal biotin on a linker: ttds)

Binder	pKd
FHPLGADSQV [SLC2A1, P11166]	below the threshold
PVRVCEETSL [OTULIN, Q96BN8]	3.58

target: DLG4_2, P78352; assay: holdup assay; design: key: below the threshold = too weak to quantify, mostly under pKd 3.1 to 4; conditions: plain residues with an end cap or a label only (N-terminal biotin on a linker: ttds)
Sequence (P78352 155-259): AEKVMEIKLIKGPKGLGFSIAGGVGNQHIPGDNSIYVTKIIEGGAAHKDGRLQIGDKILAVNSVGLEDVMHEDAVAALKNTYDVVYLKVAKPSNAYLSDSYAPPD

Binder	pKd
FHPLGADSQV [SLC2A1, P11166]	3.95
PVRVCEETSL [OTULIN, Q96BN8]	4.2

target: T5, FRMPD1, Q5SYB0; assay: holdup assay; design: key: below the threshold = too weak to quantify, mostly under pKd 3.1 to 4; conditions: plain residues with an end cap or a label only (N-terminal biotin on a linker: ttds)

Binder	pKd
FHPLGADSQV [SLC2A1, P11166]	below the threshold
PVRVCEETSL [OTULIN, Q96BN8]	below the threshold

target: FRMPD2_1, Q68DX3; assay: holdup assay; design: key: below the threshold = too weak to quantify, mostly under pKd 3.1 to 4; conditions: plain residues with an end cap or a label only (N-terminal biotin on a linker: ttds)
Sequence (Q68DX3 770-861): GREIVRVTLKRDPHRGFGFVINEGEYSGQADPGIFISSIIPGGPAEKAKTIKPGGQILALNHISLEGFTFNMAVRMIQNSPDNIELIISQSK

Binder	pKd
FHPLGADSQV [SLC2A1, P11166]	below the threshold
PVRVCEETSL [OTULIN, Q96BN8]	below the threshold

target: IL16_1, Q14005; assay: holdup assay; design: key: below the threshold = too weak to quantify, mostly under pKd 3.1 to 4; conditions: plain residues with an end cap or a label only (N-terminal biotin on a linker: ttds)
Sequence (Q14005 210-306): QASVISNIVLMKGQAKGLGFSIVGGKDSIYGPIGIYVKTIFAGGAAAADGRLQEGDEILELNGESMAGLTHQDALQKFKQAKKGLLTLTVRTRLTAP

Binder	pKd
FHPLGADSQV [SLC2A1, P11166]	3.51
PVRVCEETSL [OTULIN, Q96BN8]	3.53

target: Inadl_3, Q8NI35; assay: holdup assay; design: key: below the threshold = too weak to quantify, mostly under pKd 3.1 to 4; conditions: plain residues with an end cap or a label only (N-terminal biotin on a linker: ttds)
Sequence (Q8NI35 359-469): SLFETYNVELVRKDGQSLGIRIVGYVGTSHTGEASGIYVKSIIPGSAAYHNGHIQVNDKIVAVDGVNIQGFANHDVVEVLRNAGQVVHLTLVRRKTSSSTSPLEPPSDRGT

Binder	pKd
FHPLGADSQV [SLC2A1, P11166]	below the threshold
PVRVCEETSL [OTULIN, Q96BN8]	3.66

target: LAP2, Q96RT1; assay: holdup assay; design: key: below the threshold = too weak to quantify, mostly under pKd 3.1 to 4; conditions: plain residues with an end cap or a label only (N-terminal biotin on a linker: ttds)
Sequence (Q96RT1 other isoform, or with tags, fused parts or gaps): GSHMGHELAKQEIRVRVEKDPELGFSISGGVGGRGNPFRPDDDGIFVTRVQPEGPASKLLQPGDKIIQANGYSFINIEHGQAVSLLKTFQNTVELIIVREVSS

Binder	pKd
FHPLGADSQV [SLC2A1, P11166]	3.48
PVRVCEETSL [OTULIN, Q96BN8]	4.18

target: LIMK2, P53671; assay: holdup assay; design: key: below the threshold = too weak to quantify, mostly under pKd 3.1 to 4; conditions: plain residues with an end cap or a label only (N-terminal biotin on a linker: ttds)
Sequence (P53671 143-248): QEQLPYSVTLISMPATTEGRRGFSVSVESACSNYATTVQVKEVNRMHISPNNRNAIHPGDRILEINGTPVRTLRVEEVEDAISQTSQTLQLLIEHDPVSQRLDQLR

Binder	pKd
FHPLGADSQV [SLC2A1, P11166]	below the threshold
PVRVCEETSL [OTULIN, Q96BN8]	below the threshold

target: LNX1_3, Q8TBB1; assay: holdup assay; design: key: below the threshold = too weak to quantify, mostly under pKd 3.1 to 4; conditions: plain residues with an end cap or a label only (N-terminal biotin on a linker: ttds)
Sequence (Q8TBB1 500-596): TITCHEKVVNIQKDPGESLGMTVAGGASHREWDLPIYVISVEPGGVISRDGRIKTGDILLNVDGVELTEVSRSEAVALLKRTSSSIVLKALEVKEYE

Binder	pKd
FHPLGADSQV [SLC2A1, P11166]	below the threshold
PVRVCEETSL [OTULIN, Q96BN8]	below the threshold

target: T6, LNX2_3, Q8N448; assay: holdup assay; design: key: below the threshold = too weak to quantify, mostly under pKd 3.1 to 4; conditions: plain residues with an end cap or a label only (N-terminal biotin on a linker: ttds)

Binder	pKd
FHPLGADSQV [SLC2A1, P11166]	below the threshold
PVRVCEETSL [OTULIN, Q96BN8]	below the threshold

target: T7, MPDZ_10, O75970; assay: holdup assay; design: key: below the threshold = too weak to quantify, mostly under pKd 3.1 to 4; conditions: plain residues with an end cap or a label only (N-terminal biotin on a linker: ttds)

Binder	pKd
FHPLGADSQV [SLC2A1, P11166]	below the threshold
PVRVCEETSL [OTULIN, Q96BN8]	below the threshold

target: T8, MPP6, Q9NZW5; assay: holdup assay; design: key: below the threshold = too weak to quantify, mostly under pKd 3.1 to 4; conditions: plain residues with an end cap or a label only (N-terminal biotin on a linker: ttds)

Binder	pKd
FHPLGADSQV [SLC2A1, P11166]	below the threshold
PVRVCEETSL [OTULIN, Q96BN8]	below the threshold

target: T9, MPP7, Q5T2T1; assay: holdup assay; design: key: below the threshold = too weak to quantify, mostly under pKd 3.1 to 4; conditions: plain residues with an end cap or a label only (N-terminal biotin on a linker: ttds)

Binder	pKd
FHPLGADSQV [SLC2A1, P11166]	below the threshold
PVRVCEETSL [OTULIN, Q96BN8]	below the threshold

target: T10, NHERF3_3, Q5T2W1; assay: holdup assay; design: key: below the threshold = too weak to quantify, mostly under pKd 3.1 to 4; conditions: plain residues with an end cap or a label only (N-terminal biotin on a linker: ttds)

Binder	pKd
FHPLGADSQV [SLC2A1, P11166]	below the threshold
PVRVCEETSL [OTULIN, Q96BN8]	below the threshold

target: T11, NHERF3_4, Q5T2W1; assay: holdup assay; design: key: below the threshold = too weak to quantify, mostly under pKd 3.1 to 4; conditions: plain residues with an end cap or a label only (N-terminal biotin on a linker: ttds)

Binder	pKd
FHPLGADSQV [SLC2A1, P11166]	below the threshold
PVRVCEETSL [OTULIN, Q96BN8]	below the threshold

target: NHERF4_2, Q86UT5; assay: holdup assay; design: key: below the threshold = too weak to quantify, mostly under pKd 3.1 to 4; conditions: plain residues with an end cap or a label only (N-terminal biotin on a linker: ttds)
Sequence (Q86UT5 220-308): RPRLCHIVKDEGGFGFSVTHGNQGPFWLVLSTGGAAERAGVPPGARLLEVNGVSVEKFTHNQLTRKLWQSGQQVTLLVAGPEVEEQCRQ

Binder	pKd
FHPLGADSQV [SLC2A1, P11166]	below the threshold
PVRVCEETSL [OTULIN, Q96BN8]	below the threshold

target: NHERF4_4, Q86UT5; assay: holdup assay; design: key: below the threshold = too weak to quantify, mostly under pKd 3.1 to 4; conditions: plain residues with an end cap or a label only (N-terminal biotin on a linker: ttds)
Sequence (Q86UT5 464-550): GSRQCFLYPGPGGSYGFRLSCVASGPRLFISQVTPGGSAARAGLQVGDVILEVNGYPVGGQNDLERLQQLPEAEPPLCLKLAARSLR

Binder	pKd
FHPLGADSQV [SLC2A1, P11166]	below the threshold
PVRVCEETSL [OTULIN, Q96BN8]	below the threshold

target: T12, PDZD2_2, O15018; assay: holdup assay; design: key: below the threshold = too weak to quantify, mostly under pKd 3.1 to 4; conditions: plain residues with an end cap or a label only (N-terminal biotin on a linker: ttds)

Binder	pKd
FHPLGADSQV [SLC2A1, P11166]	4.22
PVRVCEETSL [OTULIN, Q96BN8]	3.54

target: T13, SHANK1, Q9Y566; assay: holdup assay; design: key: below the threshold = too weak to quantify, mostly under pKd 3.1 to 4; conditions: plain residues with an end cap or a label only (N-terminal biotin on a linker: ttds)

Binder	pKd
FHPLGADSQV [SLC2A1, P11166]	below the threshold
PVRVCEETSL [OTULIN, Q96BN8]	5.14

target: T14, TX1BP3, O14907; assay: holdup assay; design: key: below the threshold = too weak to quantify, mostly under pKd 3.1 to 4; conditions: plain residues with an end cap or a label only (N-terminal biotin on a linker: ttds)

Binder	pKd
FHPLGADSQV [SLC2A1, P11166]	3.77
PVRVCEETSL [OTULIN, Q96BN8]	4.37
